In PMC3258144 (Nucleic Acids Research, 2011):

What was measured:
native gel or EMSA = target: the molecule itself; assay: native gel or EMSA
[1] = target: the molecule itself; assay: fluorescence polarisation

Protein	binding result (native gel or EMSA)	binding result [1]
Dnmt3a-C K840E (domain or fragment, mouse, UniProt O88508 608-908, looked up) NHDQEFDPPKVYPPVPAEKRKPIRVLSLFDGIATGLLVLKDLGIQVDRYIASEVCEDSITVGMVRHQGKIMYVGDVRSVTQKHIQEWGPFDLVIGGSPCNDLSIVNPARKGLYEGTGRLFFEFYRLLHDARPKEGDDRPFFWLFENVVAMGVSDKRDISRFLESNPVMIDAKEVSAAHRARYFWGNLPGMNRPLASTVNDKLELQECLEHGRIAKFSKVRTITTRSNSIKQGEDQHFPVFMNEKEDILWCTEMERVFGFPVHYTDVSNMSRLARQRLLGRSWSVPVIRHLFAPLKEYFACV	binds	–
Dnmt3a-C R827E (domain or fragment, mouse, UniProt O88508 608-908, looked up) NHDQEFDPPKVYPPVPAEKRKPIRVLSLFDGIATGLLVLKDLGIQVDRYIASEVCEDSITVGMVRHQGKIMYVGDVRSVTQKHIQEWGPFDLVIGGSPCNDLSIVNPARKGLYEGTGRLFFEFYRLLHDARPKEGDDRPFFWLFENVVAMGVSDKRDISRFLESNPVMIDAKEVSAAHRARYFWGNLPGMNRPLASTVNDKLELQECLEHGRIAKFSKVETITTRSNSIKQGKDQHFPVFMNEKEDILWCTEMERVFGFPVHYTDVSNMSRLARQRLLGRSWSVPVIRHLFAPLKEYFACV	binds	binds
Dnmt3a-C E850H (domain or fragment, mouse, UniProt O88508 608-908, looked up) NHDQEFDPPKVYPPVPAEKRKPIRVLSLFDGIATGLLVLKDLGIQVDRYIASEVCEDSITVGMVRHQGKIMYVGDVRSVTQKHIQEWGPFDLVIGGSPCNDLSIVNPARKGLYEGTGRLFFEFYRLLHDARPKEGDDRPFFWLFENVVAMGVSDKRDISRFLESNPVMIDAKEVSAAHRARYFWGNLPGMNRPLASTVNDKLELQECLEHGRIAKFSKVRTITTRSNSIKQGKDQHFPVFMNHKEDILWCTEMERVFGFPVHYTDVSNMSRLARQRLLGRSWSVPVIRHLFAPLKEYFACV	binds	–
